We go through one substance from PMC7222407.

This assay deals with Cu,Zn superoxide dismutase (SOD1) from Chionodraco hamatus (Chionodraco hamatus). Nature of the assay: SEC; gel exclusion chromatography on a Sephadex G-75 column against standards (bovine serum albumin, ovalbumin, chymotrypsinogen A, cytochrome c); native mass compared with the monomer mass from SDS-PAGE with 2-mercaptoethanol and MALDI-TOF. A general note: Size exclusion chromatography separates by hydrodynamic size, large species first.

“Cu,Zn superoxide dismutase (SOD1) from Chionodraco hamatus (enzyme)” came in with a stoichiometry N of 2.

Broadly, the stoichiometry N is the number of molecules, sites or subunits per partner or assembly.
